For assay [1], the target named is Recombinant C4b β chain (pig). The assay can be described thus: SPR; Biacore 8K, single-cycle; C4bα and C4bβ covalently immobilised on CM5 chip (about 1500 RU); CR1-like fragments or mutant as mobile phase, 1.56 × 10^-2 to 4 μM; 25 °C; 10 mM HEPES pH 7.4, 150 mM NaCl, 0.05% Tween-20; apparent KD = kd/ka.
Assay [2] addresses Recombinant C4b α chain (pig). The assay is described as above.

Take “118I mutant of CR1-like CCPs 1-3 (domain or fragment)”: the Kd in assay [1] is 1200 nM; in assay [2], 271 nM.

Values taken from PMC12846707.
